Primed or numbered codes have the meaning given here. Ends that are not written are not given here. FITC′ = not defined here
Key:
[1] = molecular target: T1, labeled peptide with N-terminal methionine (XAKLDEESILKQK-FITC, SEQ ID NO: 833, X = M); test: fluorescence polarization titration, FITC-labeled peptide (FIG. 9D)
T1 peptide: MAKLDEESILKQK-{FITC′}
Protocol: As an example, methionine oxidation was examined. The thioether moiety of the methionine side chain is susceptible to oxidation during peptide synthesis and sequencing. […] It was determined computationally that methionine sulfoxide is highly unfavorable in the PS961 NAA binding pocket and that non-polar residues are preferred at P2 (FIG. 9E). The synthetic peptide […] (SEQ ID NO: 801) was sequenced, and two populations of traces with distinct kinetic signatures were observed—a first population containing leucine recognition with median PD of 0.86 s, and a second population with median PD of 0.35 s (FIG. 4C).
Binding affinity was measured by polarization using a labeled peptide. The polarization response and total intensity measurements were carried out at 20° C. on a microplate fluorometer with 480 nm excitation and 530 nm emission. The interaction of recognizer with labeled peptide containing a target N-terminal residue (XAKLDEESILKQK-FITC (SEQ ID NO: 833)) was performed in PBS buffer at pH 7.4 and readings were collected after 30 min. Multiple analyses were performed at increasing recognizer concentration at a fixed concentration of a target peptide to obtain a titration curve. An equilibrium polarization response at each concentration was plotted and fit to calculate the KD.

[2] = molecular target: peptide with N-terminal LAA (C-terminal azidolysine conjugated to DNA-streptavidin linker); test: single-molecule on-chip NAA recognition-only assay; immobilized peptide, dye-labeled recognizer in solution
Protocol: (§1) The semiconductor chip was placed in the sequencing device and a chip check was performed to test electronic circuit function and to optimize laser coupling alignment. The chip was then removed from the device socket and the chip was washed twice with 50 μL of 70% isopropanol, followed by four washes with 30 μL of wash buffer (50 mM MOPS pH 8.0, 60 mM potassium acetate, 50 mM glucose, 20 mM magnesium acetate, and surfactant mix) through a flow cell attached to the chip. A second chip check was then performed. The laser was then blocked via an integrated software-controlled shutter, peptide complex was added to a final concentration of 1-10 nM and mixed thoroughly, and the chip was incubated for 15 min. The chip was then washed six times with wash buffer, followed by addition of an imaging solution (wash buffer with 5 mM Trolox and an oxygen scavenging system). The laser was unblocked and the occupancy percentage (target 10-30%, Poisson distributed) was recorded by acquiring a photobleaching signal from a fluorophore attached to the peptide complex during 5 min of laser illumination. For NAA recognition-only assays, after peptide loading, labeled recognizer was added to a final concentration of 50 nM PS610, 100 nM PS691, or 250 nM PS961 (as indicated according to the experiment), and data was recorded for 10 hours. For dynamic sequencing assays, after peptide loading, a mixture of labeled recognizers was added to obtain final concentrations of 50 nM PS610, 100 nM PS691, and 250 nM PS961. Data was recorded for 15 min. The laser was then blocked briefly and aminopeptidases were added to the sequencing reaction via the flow cell and mixed thoroughly (final concentration 2-8 μM PhTET2 and/or 20-80 μM PhTET3, as indicated according to the experiment). The laser was then unblocked, and data was recorded for 10 hours. For all runs, 30 μL of mineral oil was added to fluid reservoirs at each port of the flow cell to prevent evaporation during the run.

[3] = molecular target: peptide with N-terminal IAA (C-terminal azidolysine conjugated to DNA-streptavidin linker); test: as above
Protocol: as §1

[4] = molecular target: peptide with N-terminal VAA (C-terminal azidolysine conjugated to DNA-streptavidin linker); test: as above
Protocol: as §1

B1: PS961 (designed binder)
chain: MPTAASATESAIEDTPAPARPEVDGRTKPKRQPRYHVVLWDDDDHTYQYVVVMLRSLFGHPPSRGYRMAKEMDTQGRVIVLTTTREHAELKRDQIHAFGRDRLLARSKGSMKASIEAEE
notes: also called PS961 (L, I, V); PS961 (LIV)
Kd [1]: 947 nM
median pulse duration (PD) [2]: 1.21 s
median pulse duration (PD) [3]: 0.28 s
median pulse duration (PD) [4]: 0.21 s

Reference: US20230213527A1 (QUANTUM SI, published 2023)
